Among the data in PMC12203613 are Km values, retold here.

Substrate in the data set: O=C(O)C(=O)Cc1ccc(O)cc1
The data set is described as follows: purified protein. The following applies: Fe(II).

For orientation: Km means the substrate concentration at which the rate is half of its maximum.

B1: AtHPPD (4-hydroxyphenylpyruvate dioxygenase) (Arabidopsis thaliana) (protein)
chain: MGHQNAAVSENQNHDDGAASSPGFKLVGFSKFVRKNPKSDKFKVKRFHHIEFWCGDATNVARRFSWGLGMRFSAKSDLSTGNMVHASYLLTSGDLRFLFTAPYSPSLSAGEIKPTTTASIPSFDHGSCRSFFSSHGLGVRAVAIEVEDAESAFSISVANGAIPSSPPIVLNEAVTIAEVKLYGDVVLRYVSYKAEDTEKSEFLPGFERVEDASSFPLDYGIRRLDHAVGNVPELGPALTYVAGFTGFHQFAEFTADDVGTAESGLNSAVLASNDEMVLLPINEPVHGTKRKSQIQTYLEHNEGAGLQHLALMSEDIFRTLREMRKRSSIGGFDFMPSPPPTYYQNLKKRVGDVLSDDQIKECEELGILVDRDDQGTLLQIFTKPLGDRPTIFIEIIQRVGCMMKDEEGKAYQSGGCGGFGKGNFSELFKSIEEYEKTLEAKQLVG
Consider B1, for which the Km stood at 44.04 µM.

B2: OsHPPD (4-hydroxyphenylpyruvate dioxygenase) (Oryza sativa Japonica Group) (protein)
chain: PPTPTPTATTGAVSAAAAAGENAGFRLVGHRRFVRANPRSDRFQALAFHHVELWCADAASAAGRFAFALGAPLAARSDLSTGNSAHASLLLRSASVAFLFTAPYGGDHGVGADAATTASIPSFSPGAARRFAADHGLAVHAVALRVADAADAFRASVAAGARPAFQPADLGGGFGLAEVELYGDVVLRFVSHPDGADAPFLPGFEGVSNPGAVDYGLRRFDHVVGNVPELAPVAAYISGFTGFHEFAEFTAEDVGTAESGLNSVVLANNAETVLLPLNEPVHGTKRRSQIQTYLDHHGGPGVQHIALASDDVLGTLREMRARSAMGGFEFLAPPPPNYYDGVRRRAGDVLSEEQINECQELGVLVDRDDQGVLLQIFTKPVGDRPTFFLEMIQRIGCMEKDESGQEYQKGGCGGFGKGNFSELFKSIEEYEKSLEAKQAPTVQGS
For B2, the Km was found to be 40.02 µM.
